From patent US20050074854A1 (TRIPEP, published 2005)

Target: gp120 of HIV-1 IIIB (on virus) (HIV-1 IIIB)
Assay: cell-based or functional assay

QFHWKNSNQIKILGN [CD4 peptide Seq. Id. No. 4 without the coupled sugar]
< 0.3 fraction neutralized (0.3 = 30%): neutralization of HIV-1 IIIB (reduction of syncytia/PFU, U87/CD4 cells); CD4 peptide alone, 0.1 ug/ml | neutralization of HIV-1 IIIB (reduction of syncytia/PFU, U87/CD4 cells); CD4 peptide alone, 1 ug/ml | neutralization of HIV-1 IIIB (reduction of syncytia/PFU, U87/CD4 cells); CD4 peptide alone, 10 ug/ml

NSNQIKILGNQGSFL [CD4 peptide Seq. Id. No. 5 without the coupled sugar]
< 0.3 fraction neutralized (0.3 = 30%): neutralization of HIV-1 IIIB (reduction of syncytia/PFU, U87/CD4 cells); CD4 peptide alone, 0.1 ug/ml | neutralization of HIV-1 IIIB (reduction of syncytia/PFU, U87/CD4 cells); CD4 peptide alone, 1 ug/ml | neutralization of HIV-1 IIIB (reduction of syncytia/PFU, U87/CD4 cells); CD4 peptide alone, 10 ug/ml

KILGNQGSFLTKGPS [CD4 peptide Seq. Id. No. 6 without the coupled sugar]
< 0.3 fraction neutralized (0.3 = 30%): neutralization of HIV-1 IIIB (reduction of syncytia/PFU, U87/CD4 cells); CD4 peptide alone, 0.1 ug/ml | neutralization of HIV-1 IIIB (reduction of syncytia/PFU, U87/CD4 cells); CD4 peptide alone, 1 ug/ml | neutralization of HIV-1 IIIB (reduction of syncytia/PFU, U87/CD4 cells); CD4 peptide alone, 10 ug/ml

QGSFLTKGPSKLNDR [CD4 peptide Seq. Id. No. 7 without the coupled sugar]
< 0.3 fraction neutralized (0.3 = 30%): neutralization of HIV-1 IIIB (reduction of syncytia/PFU, U87/CD4 cells); CD4 peptide alone, 0.1 ug/ml | neutralization of HIV-1 IIIB (reduction of syncytia/PFU, U87/CD4 cells); CD4 peptide alone, 1 ug/ml | neutralization of HIV-1 IIIB (reduction of syncytia/PFU, U87/CD4 cells); CD4 peptide alone, 10 ug/ml
